# Test: yeast display, Sf9 membrane polyspecificity reagent, FACS + sequencing; frameworks hold sequencing errors
# In short: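 Sorting gates, low and high (top ~1%), were placed on anti-HA fluorescence to track expression and on streptavidin fluorescence to track reagent binding. A clone's polyreactivity label is taken from the gate it came out of. The reagent was 10% biotinylated, detergent-solubilized Sf9 membrane, applied for 1 hour at 4 °C to galactose-induced yeast display cells.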
row,Sequence,polyreactivity (PSR sort gate)
1,QVQLVESGGGLVQAGGSLRLSCAASGRTFYEYAMGWYRQAPGKERELVAAITRSGGSTYYADSVKGRFTISRDNAKNTVYLQMNSLKPEDTAVYYCAADGIKGGVEYDYWGQGTQVTVSS,high polyreactivity
2,QVQLVESGGGLVQAGGSLRLSCAASGRTFYFYTMGWYRQAPGKERELVAAITLSGVSTYYADSVKGRFTISRDNAKITVYLQMNSLKPEDTAVYYCNAVYIRPGYRRYDYWGQGTQVTVSS,high polyreactivity
3,QVQLVESGGGLVQAGGSLRLSCAASGRTFYGNAMGWYRQAPGKERELVAAINYSGGRTFYADSVKGRFTISRDNAKNTVYLQMNSLKPEDTAVYYCAAQDTYYGLFSYWIPWSGYWGQGTQVTVSS,high polyreactivity
4,QVQLVESGGGLVQAGGSLRLSCAASGRTFYGNAMGWYRQAPGKERELVAAITTGGGNTYYADSVKGRFTISRDNAKNTVYLQMNSLKPEDTAVYYCAKCYRAYYWGFNYWGQGTQVTVSS,high polyreactivity
5,QVQLVESGGGLVQAGGSLRLSCAASGRTFYGYAMGWYIQAPGKERELVASISYSGGNTYYADSVKGRFTISRDNAKNTVYLQMNSLKPEDTAVYYCAAKARRPYSYHPYDYWGLGTQVTVSS,high polyreactivity
6,QVQLVESGGGLVQAGGSLRLSCAASGRTFYGYAMGWYRQAPGKERELVAAISSDTGGTDDTYYADSVKGRFTISRDNAKNTVYLQMNSLKPEDTAVYYCAAETEQGIIVTGLAYDYWGQGTQVTVSS,low polyreactivity
7,QVQLVESGGGLVQAGGSLRLSCAASGRTFYGYAMGWYRQAPGKERELVAAISSNNGRTYYADSVKGRFTISRDNAKNTVYLQMNSLKPEDTAVYYCAAEAVSILWRDYDYWGQGTQVTVSS,low polyreactivity
8,QVQLVESGGGLVQAGGSLRLSCAASGRTFYGYAMGWYRQAPGKERELVAAISVSGGSTYYADSVKGRFTISRDNAKNTVYLQMNSLKPEDTAVYYCATKGLFTNSPLYVSAYDYWGQGTQVTVSS,low polyreactivity
9,QVQLVESGGGLVQAGGSLRLSCAASGRTFYGYAMGWYRQAPGKERELVASISRDGSTNYADSVKGRFTISRDNAKNTVYLQMNSLKPEDTAVYYCAADWVYYRYWPYVGYDYWGQGTQVTVSS,low polyreactivity
10,QVQLVESGGGLVQAGGSLRLSCAASGRTFYGYAMGWYRQAPGKERELVATISGSGASTYYADSVKGRFTISRDNAKNTVYLQMNSLKPEVTAVYYFAARYVTNRHSRYYYWGQGTQVTVSS,high polyreactivity
11,QVQLVESGGGLVQAGGSLRLSCAASGRTFYGYGMGWYRQAAGKEREFVAAISYSGGSTYYADSVKGRFTISRDNAKNTVYLQMNSLKPEDTAVYYCAARNRGSGFYYWGQGTQVTVSS,high polyreactivity
12,QVQLVESGGGLVQAGGSLRLSCAASGRTFYGYVMGWYRQAPGQERELVAAISRSVGSTYYADSVKGRFTISRDNAKNTVYLQMNSLKPEDTAVYYCATSVYGGVDYWGQGTQVTVSS,high polyreactivity
13,QVQLVESGGGLVQAGGSLRLSCAASGRTFYINAMGWYRQAPGKERELVAGINSRGGSTYADSVKGRFTISRDNAKNTVYLQMNSLNPEDTAVYYCNARRKYLGYNYWGQGTQVTVSS,high polyreactivity
14,QVQLVESGGGLVQAGGSLRLSCAASGRTFYINAMGWYRQAPGKERELVATITRSGGSTYYADSVKGRFTISRDNAKNTVYLQMNSLKPEDTAVYYCAAGGGYYRYRDYDYWGQGTQVTVSS,high polyreactivity
15,QVQLVESGGGLVQAGGSLRLSCAASGRTFYIYAMGWYRQAPGKERELVAAITSVGSTNYADSVKGRFTISRDNAKNTVYLQMNSLKQEVTAVYYCAAESTEGTSGDYDYWGQGTQVTVSS,low polyreactivity
16,QVQLVESGGGLVQAGGSLRLSCAASGRTFYIYAMGWYRQAPGNERELVADISSSDDSTYYADSEKGRFTISRDNAKNTVYLQMNSLKPEDTAVYYCAAELYYFFDEHYYWGQGTQVTVSS,low polyreactivity
17,QVQLVESGGGLVQAGGSLRLSCAASGRTFYKNAMGWYRQAPGKEREFVASISVSGGRTYYADSVKGRFTISRDNAKNTVYLQMNSLKQEDTAVYYCNARASPLSQRDYWGQGTQVTVSS,low polyreactivity
18,QVQLVESGGGLVQAGGSLRLSCAASGRTFYKNAMGWYRQATGKERELVARISRGGSTNYADSVKGRFTISRDNAKNTVYLQMNSLKPEDTAVYYCAKEYGTHGKTYDYWGQGTQVTVSS,high polyreactivity
19,QVQLVESGGGLVQAGGSLRLSCAASGRTFYKYAMGWSRQAPGKERELVAVINWSGGRTYADSVKGRFTISRDNAKNTVYLQMNSLKPEDTAVYYCAADRGGLTHRWERNDYWGQGTQVTVSS,low polyreactivity
20,QVQLVESGGGLVQAGGSLRLSCAASGRTFYKYVMVWYRQAPGKERELVAAITRSGGRTYYADSVKGRFTISRDNAKNTVYLHMNSLKPEDTAVYYCAAASYSGHGRYDYWGQGTQVTVSS,high polyreactivity
21,QVQLVESGGGLVQAGGSLRLSCAASGRTFYLYAMGWYIQAPGKERELVAGISRSGGSTYYADSVKGRFTISRDNAKNTVYLQMNSLKPEDTAVYYCAAGYYYWGQGTQVTVSS,high polyreactivity
22,QVQLVESGGGLVQAGGSLRLSCAASGRTFYLYTKGWYRQAPGKERELVAAISRGGRTYADSVKGRFTISRDNAKNTVYLQMNSLKPEDTAVDYCNRELTSPRRWHVSRAYDYWGQGTQVTVSS,low polyreactivity

row,Sequence,polyreactivity (PSR sort gate)
1,QVQLVESGGGLVQAGGSLRLSCAASGRTFYLYTMGWYRQAPGKEREFVAIISRSGASTRYADSVKGRFTISRDNAKNTVYLQMNRLKPEDTAVYYCAAYVGYPYDYWGQGTQVTVSS,high polyreactivity
2,QVQLVESGGGLVQAGGSLRLSCAASGRTFYNNAMGWYRQAPGKERELVAAISWSGGSTFYADSVKGRFTISRDNAKKTVYLQMNSLKPEDTAVYYCAALGRPYGSDYWGQGTQVTVSS,high polyreactivity
3,QVQLVESGGGLVQAGGSLRLSCAASGRTFYNYAMGWYRQAPGKERELVASIRKNGGSTYYADSVKGRFTISRDNAKNTVYLQMNSLKPEDTAVYYCAARYWGISRIFPSKYDYWGQGTQVTVSS,high polyreactivity
4,QVQLVESGGGLVQAGGSLRLSCAASGRTFYPNAMGWSRQAPGKEREVVAAINSGGSTYYADSVKGRFTISRDKAKNTVYLQMNSLKPEDTAVYYCNAERRIAYEYWGQGTQVTVSS,low polyreactivity
5,QVQLVESGGGLVQAGGSLRLSCAASGRTFYPNAMGWSRQAPGQERAFVARISDSGGSTYYADSVKGRFTISRDNAKNTVYLQMNSLKPEDNAVYYCAADYGDPRVNEYDYWGQGTQVTVSS,low polyreactivity
6,QVQLVESGGGLVQAGGSLRLSCAASGRTFYPNTMGWYRQAPGKERELVATITRSGGNTYADSVKGRFTISRDNAKNTVYLQMNSLKREDTAVYYCNADQRRSYWLVSQRYDYWGQGTQVTVSS,low polyreactivity
7,QVQLVESGGGLVQAGGSLRLSCAASGRTFYPYAMGWNRQAPGKERELVAAIRSSGGTTYYADSVKGRFTISRDNAKNTVYLQMNSLKPEDTAFYYCAAYVDRQGGYYWGQGTQVTVSS,high polyreactivity
8,QVQLVESGGGLVQAGGSLRLSCAASGRTFYPYDLGWYRQEPGKERELVAAIRENGGSTYFADSVKGRFTISRDNAKNTVYLQLTSLKPEDNAVYYCAARNTRYWRYEYWGLGTQVTVSS,high polyreactivity
9,QVQLVESGGGLVQAGGSLRLSCAASGRTFYPYVMGWYRQAPGKEREMVAAISYTGGSTYYADSVKGRFTISRDNAKNTVYLQMNSLKPEDTAVYYCNRAKYYSGGYRYHVDYWGQGTQVTVSS,high polyreactivity
10,QVQLVESGGGLVQAGGSLRLSCAASGRTFYQYAMGWYRQAPGKERELVAAISRRGGSTYYADSVKGRFTISRDNAKNTVYLQMNSLKPEDTAVYYCAARVRGKYDYWGQGTQVTVSS,high polyreactivity
11,QVQLVESGGGLVQAGGSLRLSCAASGRTFYQYDMGWYRQAPGKERELVAAIDWSGGSTYYADSVKGRFTISRDNAKNTVYLQMNSLKPEDTAVYYCNKDSHISTAYDYWGQGTQVTVSS,low polyreactivity
12,QVQLVESGGGLVQAGGSLRLSCAASGRTFYQYDMGWYRQAPGKESELVAAIDWSGGSTYYADSVKGRFTISRDYAKITVYLQMNSLKPEDTAVYYCNADAYPHPVVGYDYWGQGTQVTVSS,low polyreactivity
13,QVQLVESGGGLVQAGGSLRLSCAASGRTFYQYTMGWYRQAPGKERELVAAITTSTGNTYYADSVKGRFTISRDNAKNTDYLQMNSLKPEDTAVYYCAADTVWRLDYWGQGTQVTVSS,low polyreactivity
14,QVQLVESGGGLVQAGGSLRLSCAASGRTFYRNAMGWSRPAPGKERELVAAISSDDSTNYADSVKGRFTISRDNAKNTVYLQMNSLKPEDTAVYYCNADYYYGYEYDYWGQGTQVTVSS,low polyreactivity
15,QVQLVESGGGLVQAGGSLRLSCAASGRTFYRNAMGWYRQAPGKERELVAAISNGGSTNYADSVKGRFTISRDNAKNTVYLQMNSLKPEDTAVYYCAKAVIRWRGSGQHGYFWYDYLGQGTQVTVSS,high polyreactivity
16,QVQLVESGGGLVQAGGSLRLSCAASGRTFYRNTMGWYRQAPGKEREFVAAISATAGRTYYADSVKGRFTISRDNAKNTVYLQMNSLKPEDTAVYYCAAVPLRNRWPNSWPALDYWGQGTQVTVSS,high polyreactivity
17,QVQLVESGGGLVQAGGSLRLSCAASGRTFYRNTMGWYRQAPGKERELVAAITGSGGITYYADSVKGRFTISRDNAKNTVYLKMNSLKPEDTAVYYCAAARYLGQGTQVTVSS,high polyreactivity
18,QVQLVESGGGLVQAGGSLRLSCAASGRTFYRYAMGLYRQAPRKERELVASITRGTSTNYADSVKGRFTISRDNAKNTVYLQMNSLKPEDTAVYYCNRRIFGGQRMYYWGQGTQVTVSS,high polyreactivity
19,QVQLVESGGGLVQAGGSLRLSCAASGRTFYRYAMGWYRQAPGKERELVAAITGGGRTYYADSVKGRFTISRDNAKNTVYLQMNSLKPEDTAVYDCAAVVLRRPAYDYWGQGTQVTVSS,low polyreactivity
20,QVQLVESGGGLVQAGGSLRLSCAASGRTFYRYAMGWYRQAPGKERELVAAITRRGDSTSYADSVKGRFTISRDNAKNTVYLQMNSLKPEDTAVYYCATLVQGSVYGLYGGGYWGQGTQVTVSS,low polyreactivity
21,QVQLVESGGGLVQAGGSLRLSCAASGRTFYRYAMGWYRQAPGKERELVASITWSGGSTYYADSVKGRFTISRDNAKNTVYLQMNSLKPEDTAVYYCAAISAVTLRGYYYWGQGTQVTVSS,high polyreactivity

# Reference: the nanobody polyreactivity screen of Harvey et al. (2022)
